Read-outs that look alike come from different tables or passages of the source.
How the values were obtained:
Assay in all cases: SPR
[1] = target: HLA-B*08:01.N80I.R82L.G83R/FLR (human | not stated | EBV)
[2] = target: HLA-B*08:01.N80I.R82L.G83R/FLR (human | not stated | EBV); remark: listed apart in the source
[3] = target: HLA-B*08:01.R82L/FLR (human | not stated | EBV)

In the case of “Soluble KIR3DL1*001 (from UniProt P43629 22-340) (receptor)”, the Kd [1] is reported as 40.1 µM, the Kd [2] is reported as 41.9 µM and the Kd [3] is reported as greater than 300 µM.
